Earlier results on one substance are cited in publication PMC10952613.

The data set deals with EGFR (Homo sapiens) (UniProt P00533).

Where “and” joins values, the source holds several entries; their conditions need not be identical. Equal values may be shown once.

Broadly, the Kd is the constant that tells how readily two partners part at equilibrium. On to EGF (from UniProt P01133), for which the Kd is < 1 nM and > 10 nM.
